Experimental findings from PMC5386385, “DRP-1 is required for BH3 mimetic-mediated mitochondrial fragmentation and apoptosis” (Cell Death & Disease, 2017) are described below.

For data set [1], the target named is WT MCL-1 fusion protein (N-terminal His6-tag fused to amino acids Glu173-Arg329, containing the BH3, BH1 and BH2 domains) (human) (UniProt Q07820). Put plainly: differential scanning fluorimetry (thermal shift assay); purified MCL-1 proteins (10 uM) with or without the indicated concentrations of ligand, Sypro-Orange, thermal ramping 0.3 °C per min between 25 and 94 °C, final DMSO 4% v/v; ΔTm against buffer without peptide. In general terms: In DSF a fluorescence change marks the thermal transition of the protein.
WT MCL-1 fusion protein (N-terminal His6-tag fused to amino acids Glu173-Arg329, containing the BH3, BH1 and BH2 domains) (human), sequence (Q07820 173-329): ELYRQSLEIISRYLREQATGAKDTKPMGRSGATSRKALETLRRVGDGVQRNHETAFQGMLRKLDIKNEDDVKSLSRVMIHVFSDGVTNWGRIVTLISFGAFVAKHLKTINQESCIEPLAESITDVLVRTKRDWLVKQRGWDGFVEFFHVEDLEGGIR

In data set [2] the target is T1, WT MCL-1 fusion protein (N-terminal His6-tag fused to amino acids Glu173-Arg329, containing the BH3, BH1 and … (human, UniProt Q07820 173-329)).
T1 construct: human MCL-1, amino acids E173-R329 (BH3, BH1 and BH2 domains); the results once say 172-329; Cloned into pOPIN F; also called MCL-1 (E173-R329); MCL-1 protein (173-329); source: E. coli BL21 (DE3) pLysS, purified (Ni-NTA IMAC, Superdex 200 SEC)
T1 sequence (Q07820 173-329): as above
Described as above. The following applies: both partners purified.

Take “MCL-1 SAHB (stabilised alpha-helix of BCL-2 domains, designed to mimic the BH3 binding helix of MCL-1) (peptide)”: the thermal shift (ΔTm) at 10 uM in data set [1] is 4 °C.

B1: PUMA peptide (peptide)
peptide: EQWAREIGAQLRRMADDLNA
notes: synthetic BH3 peptide of PUMA; source: synthetic peptide (New England Peptide or GenScript)
With B1, the binding result in data set [2] was “binds”.

B2: NOXA peptide (peptide)
peptide: AELPPEFAAQLRKIGDKVYC
notes: synthetic BH3 peptide of NOXA; source: synthetic peptide (New England Peptide or GenScript)
As to B2, the binding result in data set [2] is given as “binds”.

B3: MS-1 (MCL-1 specific synthetic peptide) (peptide)
peptide: RPEIWMTQGLRRLGDEINAYYAR
notes: MCL-1 specific synthetic BH3 peptide; source: synthetic peptide (New England Peptide or GenScript)
Consider B3, for which the “temperature shift (ΔTm) at equimolar peptide and MCL-1” value in data set [2] is roughly 10 °C.
